Literature values as cited in PMC11346460.

Target: RIG-I (Homo sapiens) (UniProt O95786)
Chain of UniProt O95786 (O95786 whole entry): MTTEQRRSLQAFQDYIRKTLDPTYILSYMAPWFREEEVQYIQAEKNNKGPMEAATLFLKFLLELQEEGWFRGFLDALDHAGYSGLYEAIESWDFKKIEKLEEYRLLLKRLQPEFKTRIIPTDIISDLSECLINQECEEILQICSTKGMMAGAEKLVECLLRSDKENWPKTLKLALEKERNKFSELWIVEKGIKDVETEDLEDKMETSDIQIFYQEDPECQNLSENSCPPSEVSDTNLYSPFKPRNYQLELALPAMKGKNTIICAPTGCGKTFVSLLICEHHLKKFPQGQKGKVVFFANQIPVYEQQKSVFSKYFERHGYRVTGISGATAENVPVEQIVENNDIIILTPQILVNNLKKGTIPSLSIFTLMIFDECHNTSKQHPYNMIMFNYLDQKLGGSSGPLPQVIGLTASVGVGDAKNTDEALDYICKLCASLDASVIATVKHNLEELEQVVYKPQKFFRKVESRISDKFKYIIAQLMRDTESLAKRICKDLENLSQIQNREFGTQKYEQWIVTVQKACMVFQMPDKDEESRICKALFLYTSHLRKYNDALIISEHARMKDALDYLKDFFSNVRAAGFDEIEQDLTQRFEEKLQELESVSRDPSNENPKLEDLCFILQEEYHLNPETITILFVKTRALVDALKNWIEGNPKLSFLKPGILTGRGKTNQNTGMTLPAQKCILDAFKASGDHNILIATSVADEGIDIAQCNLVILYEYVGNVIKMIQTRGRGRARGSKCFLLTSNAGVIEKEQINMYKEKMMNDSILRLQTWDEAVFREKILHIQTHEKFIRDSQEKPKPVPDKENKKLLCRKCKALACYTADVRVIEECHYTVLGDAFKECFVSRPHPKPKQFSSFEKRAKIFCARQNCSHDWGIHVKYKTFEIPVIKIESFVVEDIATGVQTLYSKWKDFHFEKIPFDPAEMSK

Kd: 6.6 nM
Substance: RIPLET (from UniProt Q8IUD6)
